Source: patent US20240082302A1 (University of Pennsylvania, published 2024)

Tests used:
[1] = target: T1, human TIM-3 expressed on cells (NB4-TIM3 cells; human AML leukemic stem cells) (human, UniProt Q8TDQ0 22-301); test: flow cytometry, VHH phage clones on NB4 cells expressing human TIM-3
T1 construct: whole, on cells; also called NB4-expressing human TIM-3
T1 sequence (looked up): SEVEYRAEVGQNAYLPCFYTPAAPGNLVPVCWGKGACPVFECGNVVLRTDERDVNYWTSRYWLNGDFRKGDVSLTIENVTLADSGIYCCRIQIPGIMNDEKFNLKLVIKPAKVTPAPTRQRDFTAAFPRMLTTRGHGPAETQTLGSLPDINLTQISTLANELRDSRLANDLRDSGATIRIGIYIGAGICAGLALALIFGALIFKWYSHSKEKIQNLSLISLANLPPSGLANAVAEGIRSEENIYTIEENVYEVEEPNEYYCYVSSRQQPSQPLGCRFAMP

[2] = target: T1, human TIM-3 expressed on cells …; test: phage display panning/screening on TIM-3 expressing NB4 cells
Text: To generate VHHs targeting human TIM-3, human recombinant extracellular TIM-3 purified from HEK293 cells was used to immunize llamas, and the resulting VHH phage display libraries were constructed. The phage VHH clones targeting TIM-3 were screened by panning through TIM-3 expressing NB4 cells. The positive clones specifically binding to TIM-3 expressing NB4 cells were isolated. DNA encoding each of the VHHs, including VHH30, 32, and 33, were sequenced. The sequences were consistent with the predicted sequences for VHHs. Each of the VHHs, with both nucleotide and amino acid sequences, are listed below.

B1: Anti-TIM3 VHH30 (VHH)
VHH: QVQLQESGGGLVQAGGSLRLSCAASGFTFGSYVMGWFRQAPGKEREFVASISTSGGITSYADSVKGRFTVSRDNAKNTVYLQMNSLKPEDTAVYYCARDLTYYRTGGRLPDNANGYAYWGQGTQVTVSS
notes: Llama VHH tested as a phage clone (pCOMB3X phage display) by flow cytometry on cells
Question: Does B1 bind [1]?
Answer: binds

B2: Anti-TIM3 VHH33 (VHH)
VHH: QVQLQESGGGLVQPGGSLRLSCAVSGLTPDAYVMGWFRQAPGKEREGVSCISPSGGTTSYPDSVKGRFTISRDNAKNTVYLQMNSLKPEDTGVYYCAAVAGRWCDYGMNYYGKGTQVTVSS
notes: as for B1
Question: Does B2 bind [1]?
Answer: binds

B3: Anti-TIM3 VHH32 (VHH)
VHH: QVQLQESGGGLVQAGGSLNLSCAASGSSFRLYTVGWHRQAPGKQRELVAWISGAGSTNYHSSVKGRFTISRDNAKNTALLQMNNLAPEDTAVYYCNLLNYWGQGTQVTVSS
notes: as for B1
Question: Does B3 bind [1]?
Answer: binds

B4: Anti-TIM3 VHH12 (VHH)
VHH: QVQLQESGGGLVQTGDSLRLSCVVSGGTFRNYVMGWFRQAPGKEREFVSAMNWSGGITVYADSVKGRFTISRDNAKNAVYLQMGSLKPGDTAVYYCAAAAIDGGTVRSINSYAYWGQGTQVTVSS
notes: Llama VHH isolated as a phage display clone (pCOMB3X)
Question: Does B4 bind [2]?
Answer: binds

B5: Anti-TIM3 VHH13 (VHH)
VHH: QVQLQESGGGLVQAGGSLSLSCAASGRTFKNYLMAWFRQTPGKEREFVAAITQLGTRSLNEDFVKGRFTISRDNAKNTVYLQMNDLKTDDTGVYSCAASLQSGGSLRYAKYDYWGQGTQVTVSS
notes: as for B4
Question: Does B5 bind [2]?
Answer: binds

B6: Anti-TIM3 VHH38 (VHH)
VHH: QVQLQESGGGLVQAGDSLRLSCAVGRTFSASTLGWFRQSPGKEREFVAAISWWRGEAYYGDSVKGRFTISRDNTKTTINLQMNSLKPEDTAVYYCARAQFDGATRADDYDNWGQGTQVTVSS
notes: as for B4
Question: Does B6 bind [2]?
Answer: binds
